In patent US20090298083:

Assays:
FLAG-Pax3-FOXO1 fusion = test: cell_activity; conditions: CAT assay, proliferating mouse primary myoblasts; no significant change during differentiation
FLAG-Pax3 = FLAG-Pax3 (UniProt P23760); test: cell_activity; conditions: CAT assay, proliferating mouse primary myoblasts; activity completely lost after 12 h differentiation
[1] = biological target: GST-Pax3 phosphorylated at Ser205 by CKII (UniProt P23760); test: EMSA; conditions: Pax3 phosphorylated at Ser205 by CKII; reference for maximal binding; nearly 10-fold more binding than unphosphorylated
[2] = biological target: GST-Pax3 non-phosphorylated (UniProt P23760); test: EMSA; conditions: unphosphorylated; value inferred from nearly 10-fold increase on CKII phosphorylation
GST-Pax3 non-phosphorylated, sequence (P23760 other isoform, or with tags, fused parts or gaps): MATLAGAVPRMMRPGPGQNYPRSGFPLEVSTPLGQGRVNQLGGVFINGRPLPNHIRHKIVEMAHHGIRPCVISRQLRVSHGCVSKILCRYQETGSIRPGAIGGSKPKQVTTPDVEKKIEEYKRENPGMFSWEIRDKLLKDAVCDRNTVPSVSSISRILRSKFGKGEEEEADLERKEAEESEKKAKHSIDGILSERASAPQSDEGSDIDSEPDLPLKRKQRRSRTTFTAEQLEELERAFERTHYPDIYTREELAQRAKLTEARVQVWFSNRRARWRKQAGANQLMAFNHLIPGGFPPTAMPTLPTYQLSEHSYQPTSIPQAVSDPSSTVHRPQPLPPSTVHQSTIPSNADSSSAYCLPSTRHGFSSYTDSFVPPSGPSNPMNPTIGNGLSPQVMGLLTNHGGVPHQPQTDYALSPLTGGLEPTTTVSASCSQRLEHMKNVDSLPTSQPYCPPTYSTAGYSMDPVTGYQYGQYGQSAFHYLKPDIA

GST-Pax3 phosphorylated at Ser205 by CKII, sequence (P23760 other isoform, or with tags, fused parts or gaps): as above
FLAG-Pax3, sequence (P23760 other isoform, or with tags, fused parts or gaps): as above

Substance	activity (fold over background) (FLAG-Pax3-FOXO1 fusion)	activity (fold over background) (FLAG-Pax3)	binding signal [1]	binding signal [2]
(PRS-9)TK-CAT reporter, six tandem repeats of Pax3 paired and homeodomain recognition sequence	4	2	–	–
oligonucleotide with paired- and homeodomain recognition sequences	–	–	100%	10%
